This note sets out measurements from US7442159.

Assay [1] addresses Stoffel fragment of Thermus aquaticus DNA polymerase I fused to p3, displayed on phage (pHEN1-Stoffel) (Thermus aquaticus; filamentous bacteriophage) (UniProt P19821). The experiment in a line: phage ELISA, plate coated with anti-Taq antibody, anti-M13-HRP detection; 10^9 phage particles of the pelB leader phagemid pHEN1-Stoffel. (In general: ELISA stands for enzyme-linked immunosorbent assay.)

The target is the same in assay [2]. The experiment in a line: phage ELISA, plate coated with anti-Taq antibody, anti-M13-HRP detection; 10^7 phage particles of clone 10 (selected leader).

Chain of UniProt P19821 (P19821 290-832 limits assumed): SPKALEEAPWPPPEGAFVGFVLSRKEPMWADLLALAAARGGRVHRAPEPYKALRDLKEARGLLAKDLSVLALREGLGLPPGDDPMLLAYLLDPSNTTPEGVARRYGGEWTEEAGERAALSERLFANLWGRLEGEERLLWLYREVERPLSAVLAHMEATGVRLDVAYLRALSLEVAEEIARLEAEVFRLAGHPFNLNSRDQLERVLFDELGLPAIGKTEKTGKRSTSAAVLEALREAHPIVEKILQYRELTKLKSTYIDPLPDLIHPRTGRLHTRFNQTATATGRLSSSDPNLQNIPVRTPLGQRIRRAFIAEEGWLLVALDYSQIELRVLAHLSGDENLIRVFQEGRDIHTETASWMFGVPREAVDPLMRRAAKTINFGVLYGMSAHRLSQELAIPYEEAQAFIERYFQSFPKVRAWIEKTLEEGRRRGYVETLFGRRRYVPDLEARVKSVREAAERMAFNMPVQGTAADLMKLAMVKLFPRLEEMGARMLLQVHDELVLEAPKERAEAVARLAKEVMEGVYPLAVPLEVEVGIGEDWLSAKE

For anti-Taq antibody (Taqstart, Clontech), the figures for the signal to noise ratio in assay [1] and in assay [2] were 1.46 and 1.47, respectively.
